Publication PMC7430637
Changes are numbered by the printed parent chain. Names may count otherwise. Blank lines part the entries; values can stand above or below the binder they belong to.

Legend:
[1] = target: T1, FAM-H3(1–15)K9me3 peptide; experiment: fluorescence polarisation; FAM-labelled H3(1–15) peptide, recombinant protein titrated; room temperature; as described in ref. 28
T1 chain: ARTKQTARKSTGGKA

[2] = target: T1, FAM-H3(1–15)K9me3 peptide; experiment: fluorescence polarization; details: chain shown with the change; read at the highest protein concentration of the titration, about 50 µM on the x axis; parent: est. 0.28; read off a plot
[3] = target: T2, FAM-H3(1-15)K9me3 peptide (N-terminally fluorescein-labelled); experiment: fluorescence polarisation; FAM-labelled H3(1-15) peptide, recombinant protein titrated; RT; as described (ref. 28)
T2 chain: ARTKQTARKSTGGKA

[4] = target: T3, H3(1-15)K9me3-FAM peptide (C-terminally fluorescein-labelled); experiment: as above
T3 chain: ARTKQTARKSTGGKA

[5] = target: T4, H3(1-15)unmodified-FAM peptide (C-terminally fluorescein-labelled); experiment: as above
T4 chain: ARTKQTARKSTGGKA

response (fraction bound) [2]: 0.87
B2: mTTD-PHD V1 P293A; P294A; P295A (protein)
chain: VWEDTDLGLYKVNEYVDVRDNIFGAWFEAQVVQVQKRALSEDEPCSSSAVKTSEDDIMYHVKYDDYPEHGVDIVKAKNVRARARTVIPWENLEVGQVVMANYNVDYPRKRGFWYDVEICRKRQTRTARELYGNIRLLNDSQLNNCRIMFVDEVLMIELPKERRPLIASPSQAAAALRNTGKSGPSCRFCKDDENKPCRKCACHVCGGREAPEKQLLCDECDMAFHLYCLKPPLTSVPPEPEWYCPSCRTDSSEVVQAGE

response (fraction bound) [2]: 0.2
B3: mTTD-PHD V1 K302A; S303A (protein)
chain: B2 chain with A172P, A173P, A174P, K181A, S182A

response (fraction bound) [2]: 0.97
B4: mTTD-PHD V1 R298A (protein)
chain: B2 chain with A172P, A173P, A174P, R177A

Further lines, the binder ahead of its results:

B1: hTTD-PHD (domain or fragment)
chain: MWDETELGLYKVNEYVDARDTNMGAWFEAQVVRVTRKAPSRDEPCSSTSRPALEEDVIYHVKYDDYPENGVVQMNSRDVRARARTIIKWQDLEVGQVVMLNYNPDNPKERGFWYDAEISRKRETRTARELYANVVLGDDSLNDCRIIFVDEVFKIERPGEGSPMVDNPMRRKSGPSCKHCKDDVNRLCRVCACHLCGGRQDPDKQLMCDECDMAFHIYCLDPPLSSVPSEDEWYCPECRND
modifications: not checked
Kd [1]: 16.2 µM

B5: hTTD-PHD module carrying the nine amino acid insertion of mLinker 2 V1 (domain or fragment)
chain: MWDETELGLYKVNEYVDARDTNMGAWFEAQVVRVTRKAPSRDEPCSSTSRPALEEDVIYHVKYDDYPENGVVQMNSRDVRARARTIIKWQDLEVGQVVMLNYNPDNPKERGFWYDAEISRKRETRTARELYANVVLGDDSLNDCRIIFVDEVFKIERPGEGSPMVDNPMRPPPALRNTGKSGPSCKHCKDDVNRLCRVCACHLCGGRQDPDKQLMCDECDMAFHIYCLDPPLSSVPSEDEWYCPECRNDASEVVLAGE
modifications: not checked
Kd [3]: > 50 µM
Kd [4]: 6.9 µM
Kd [5]: 4.5 µM

B6: hTTD-PHD, mLinker2 V1* (domain or fragment)
chain: B5 chain
modifications: not checked
Kd [1]: > 100 µM
